Experiments:
[1] = target: T1, AnkB_MBD (AnkB ANK repeats only, aa 28–827) (human, UniProt Q01484-2 28-827); assay: ITC; VP-ITC MicroCal, 25 °C; proteins in 50 mM Tris-HCl pH 7.8, 1 mM DTT, 1 mM EDTA with 100 mM or 500 mM NaCl as required; who was titrated is not told; settings: both partners purified
T1 construct: ankyrin-B (AnkB), human 220 kDa isoform, residues 28-827: the 24 ANK repeats (MBD), no linker; numbers count on: human 220 kDa AnkB NM_020977.3; Poor quality in 100 mM NaCl buffer; also called AnkB 28–827; source: E. coli BL21 (DE3), purified (Ni2+-NTA, size exclusion)
T1 sequence (looked up): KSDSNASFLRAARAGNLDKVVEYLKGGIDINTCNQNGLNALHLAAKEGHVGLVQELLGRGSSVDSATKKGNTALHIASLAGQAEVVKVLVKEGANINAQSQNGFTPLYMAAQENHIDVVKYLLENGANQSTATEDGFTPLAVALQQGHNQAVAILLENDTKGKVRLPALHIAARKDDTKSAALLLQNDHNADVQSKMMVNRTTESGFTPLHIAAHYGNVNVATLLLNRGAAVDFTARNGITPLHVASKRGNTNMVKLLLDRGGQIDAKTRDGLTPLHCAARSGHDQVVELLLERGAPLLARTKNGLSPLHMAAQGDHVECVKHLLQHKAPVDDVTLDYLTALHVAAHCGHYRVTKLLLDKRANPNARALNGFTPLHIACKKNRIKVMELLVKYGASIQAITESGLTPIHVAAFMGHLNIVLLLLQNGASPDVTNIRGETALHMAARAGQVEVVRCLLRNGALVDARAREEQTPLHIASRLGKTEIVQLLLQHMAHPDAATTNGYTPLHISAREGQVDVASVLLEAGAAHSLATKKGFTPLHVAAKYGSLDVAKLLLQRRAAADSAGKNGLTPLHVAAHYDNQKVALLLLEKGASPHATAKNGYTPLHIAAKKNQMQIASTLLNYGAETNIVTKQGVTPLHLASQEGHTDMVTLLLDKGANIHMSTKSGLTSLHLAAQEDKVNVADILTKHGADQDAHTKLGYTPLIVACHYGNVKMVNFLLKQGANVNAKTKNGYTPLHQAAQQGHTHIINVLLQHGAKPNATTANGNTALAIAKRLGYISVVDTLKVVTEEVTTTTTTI

[2] = target: T2, AnkB_MBD Asn595Ala (human, UniProt Q01484-2 28-827, Asn595Ala); assay: as above; settings: both partners purified
T2 construct: ankyrin-B (AnkB), human 220 kDa isoform, MBD 28-827 with N595A in a finger loop; numbers count on: human 220 kDa AnkB NM_020977.3; source: E. coli BL21 (DE3), purified (Ni2+-NTA, size exclusion)
T2 sequence (looked up): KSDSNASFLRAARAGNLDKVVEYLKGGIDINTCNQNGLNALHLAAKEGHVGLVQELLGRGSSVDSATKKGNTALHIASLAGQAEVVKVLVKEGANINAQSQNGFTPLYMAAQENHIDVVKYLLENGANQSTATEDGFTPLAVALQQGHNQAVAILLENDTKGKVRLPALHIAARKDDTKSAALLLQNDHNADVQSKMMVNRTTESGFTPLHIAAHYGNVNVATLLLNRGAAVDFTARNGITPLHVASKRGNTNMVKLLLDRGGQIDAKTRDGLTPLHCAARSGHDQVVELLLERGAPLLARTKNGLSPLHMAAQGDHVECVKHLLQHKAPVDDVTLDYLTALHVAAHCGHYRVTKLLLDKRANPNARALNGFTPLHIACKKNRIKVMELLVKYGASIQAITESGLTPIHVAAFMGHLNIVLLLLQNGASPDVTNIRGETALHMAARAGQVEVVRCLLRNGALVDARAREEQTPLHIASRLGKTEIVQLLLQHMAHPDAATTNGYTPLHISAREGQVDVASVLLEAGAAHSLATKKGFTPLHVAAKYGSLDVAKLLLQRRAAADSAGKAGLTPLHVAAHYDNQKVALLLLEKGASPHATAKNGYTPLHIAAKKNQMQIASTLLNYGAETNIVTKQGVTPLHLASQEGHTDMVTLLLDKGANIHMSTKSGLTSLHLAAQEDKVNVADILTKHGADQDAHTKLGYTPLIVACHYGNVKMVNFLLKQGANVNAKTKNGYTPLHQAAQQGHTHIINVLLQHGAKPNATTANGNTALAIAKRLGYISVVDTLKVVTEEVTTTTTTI

binding result [1]: binds | binding result [2]: binds
B1: AnkB_AI-c (aa 828–852) (domain or fragment, human, UniProt Q01484-2 828-852, looked up)
chain: TEKHKLNVPETMTEVLDVSDEEGDD
notes: numbers count on: human 220 kDa AnkB NM_020977.3; source: E. coli BL21 (DE3), purified (Ni2+-NTA, size exclusion)
